Among the data in the RNAGym collection of RNA variant scans (doi:10.7554/elife.80360) are self-cleavage values, retold here.

The labels stand for the following.
B1: Hairpin Ribozyme (parent)
chain: GUCCUCUUUCACGUGCGCGUGAAAGAGAGAAGUGAACCAGAGAAACACACGUUGUGGUAUAUUACCUGGUA

In this series the parent is B1. The experiment in a line: self-cleavage, relative activity (ratio to wild type); higher = more cleavage; co-transcriptional.
A11G A39C: the self-cleavage is 0.45. Then C10G A35C, with 0.726; and C10G A35G, with 0.656. For the variant C10A G17A, the self-cleavage worked out at 0.622. Consider A11G A41C, for which the self-cleavage came to 1.06. Next, A11G A47C: 0.481; A11C C50U: 0.247. A11G U55A: the self-cleavage was 0.191.

As to A11U A30C, the self-cleavage was 0.236. As for C10G U58C, the self-cleavage stood at 0.681. Then C10A A47U, with 0.177; and C10A A39U, with 0.262.

C10A A39G: the self-cleavage came out at 0.224.

For the variant A11C A61U, the self-cleavage is 0.118. Then A11C A61G, with 0.0356; and C10G G32U, with 0.15. For the variant C10G G27A, the self-cleavage was found to be 0.405. Consider C10G G27C, for which the self-cleavage was 0.147.

Take C10U C18G: the self-cleavage came to 0.755. For the variant A11U C65G, the self-cleavage stood at 0.308. As for A11U C65U, the self-cleavage came out at 0.25. As for A11G U33C, the self-cleavage turned out to be 0.0978.

For the variant A11G A71C, the self-cleavage was 1.35. As for A11G A71U, the self-cleavage was 0.749. With C10A G34C, the self-cleavage was 0.942. Then A11G G19A, with 0.88; and A11G U63C, with 0.204; and A11G U63G, with 0.296.

A11C G40C: the self-cleavage is 0.182. Turning to A11C G40U, the self-cleavage amounted to 0.181. As for C10A C50A, the self-cleavage is 0.255.

Turning to C10A C50G, the self-cleavage was 0.352. As for C10G U60A, the self-cleavage was found to be 0.608.

On to A11G G29U, for which the self-cleavage came to 0.142.

For the variant A11C G57C, the self-cleavage came to 0.145. On to C10G A36G, for which the self-cleavage was found to be 0.778. In the case of A11G C16G, the self-cleavage came out at 0.592. For A11U A36U, the self-cleavage was determined as 0.533. Take A11U A36C: the self-cleavage was 0.619. Then A11C G34U, with 1.45. Then C10U A49G, with 0.422; and C10U A49C, with 0.143. For the variant A11G U58G, the self-cleavage was found to be 0.802. Consider A11U C37G, for which the self-cleavage was found to be 0.369. Then A11U C37U, with 0.524. C10G A39U: the self-cleavage is 0.273. With A11C U53A, the self-cleavage was determined as 0.919.

Turning to C10G A59U, the self-cleavage was found to be 0.16.

On to C10G C46A, for which the self-cleavage came out at 0.106. A11G C50G: the self-cleavage was 0.346. Then A11G C50A, with 0.196; and A11C G56U, with 0.0715. Turning to C10A U33C, the self-cleavage was 0.174. Then C10U U62C, with 0.281. With A11G A36G, the self-cleavage came out at 0.972. C10A G29U: the self-cleavage was determined as 0.0922. Regarding C10A G29C, the self-cleavage worked out at 0.16.

As for C10U A30C, the self-cleavage worked out at 0.146. For A11G U70G, the self-cleavage was found to be 0.846. A11C G19U: the self-cleavage is 0.697.

Turning to C10G G13A, the self-cleavage was determined as 0.568. With C10G A24C, the self-cleavage amounted to 0.641. Next, A11G U53A: 0.945; A11G U53G: 0.755. With C10U G69C, the self-cleavage is 0.235. On to C10A U63A, for which the self-cleavage was found to be 0.118. With A11G G21U, the self-cleavage worked out at 0.72.

A11G G21A: the self-cleavage turned out to be 0.764.

For A11C C66G, the self-cleavage turned out to be 0.0776. As for A11C U20G, the self-cleavage stood at 1.04.

For A11C U20A, the self-cleavage worked out at 0.774. Regarding C10U C46U, the self-cleavage came out at 0.152. Then A11G A30U, with 0.118; and C10A G56C, with 0.11. Then C10A G56A, with 0.133; and A11G A28C, with 0.446. For the variant C10U G13U, the self-cleavage was 0.612.

Regarding C10U G13C, the self-cleavage is 0.471.

Regarding C10G A23U, the self-cleavage amounted to 0.656. Then A11C C46U, with 0.255; and A11C C46G, with 0.204. For the variant A11G, the self-cleavage turned out to be 0.883. For A11C, the self-cleavage is 0.849. With A11U, the self-cleavage is 0.831. Then C10A C38G, with 0.196.

On to C10A C38A, for which the self-cleavage amounted to 0.171. Then C10A G68C, with 0.114; and A11U C12A, with 0.763; and A11U C12U, with 0.694. Next, A11C G17A: 0.759; C10U A24U: 0.778; C10U A24C: 0.613. Turning to C10U A24G, the self-cleavage amounted to 0.885.

For the variant C10G A43G, the self-cleavage is 0.175. As to C10G U67C, the self-cleavage is 0.172. C10G U67A: the self-cleavage came to 0.191. Next, C10A A28C: 0.251; A11C G51A: 1.08; C10A A36C: 0.528.

Regarding C10A G15U, the self-cleavage was 0.871. As to C10A U58C, the self-cleavage turned out to be 0.858. Consider A11G U14G, for which the self-cleavage stood at 0.846.

Turning to A11G G54U, the self-cleavage stood at 0.56. Next, A11G G54A: 0.487; A11G G51C: 0.784; C10U U14G: 0.698. Next, C10U U14C: 0.671; C10A G21U: 0.939; C10G U53A: 0.663. In the case of C10G U53C, the self-cleavage was 0.59. Take A11G G57C: the self-cleavage is 0.169. For the variant A11G U60C, the self-cleavage was 1.

A11G U60A: the self-cleavage amounted to 0.732. For A11C U14C, the self-cleavage worked out at 0.68.

Regarding C10A C12G, the self-cleavage was 0.556. For C10A C12U, the self-cleavage stood at 0.452.

Turning to C10G C50A, the self-cleavage was 0.198. Take A11U C66U: the self-cleavage worked out at 0.318. With C10U G27A, the self-cleavage stood at 0.403.

In the case of A11U C48U, the self-cleavage was 0.154. Then A11U C48A, with 0.215; and C10U C37U, with 0.39. With A11U C50A, the self-cleavage is 0.153. For the variant A11U A24U, the self-cleavage was 0.638. As to A11C A49G, the self-cleavage came out at 0.629. In the case of A11C A49U, the self-cleavage turned out to be 0.197. Next, C10U G32U: 0.164. For the variant C10U G32A, the self-cleavage turned out to be 0.176. Take C10U A41C: the self-cleavage was determined as 1.03. On to C10U A41U, for which the self-cleavage was 0.817. Regarding C10A U67A, the self-cleavage is 0.0418.

Turning to C10G C48A, the self-cleavage was 0.151. Then A11G U20A, with 0.637.

In the case of C10G C65G, the self-cleavage amounted to 0.246. C10A A45G: the self-cleavage was 0.138.

In the case of A11C C16U, the self-cleavage amounted to 0.811. With A11G U67G, the self-cleavage was found to be 0.354. Consider A11G U67A, for which the self-cleavage was found to be 0.243. In the case of C10U G29C, the self-cleavage is 0.159. Turning to C10U G29U, the self-cleavage is 0.134. On to A11U C38A, for which the self-cleavage came to 0.2. For A11C A64C, the self-cleavage turned out to be 0.0846.

As to A11C A64G, the self-cleavage turned out to be 0.462. On to C10U G17A, for which the self-cleavage was 0.808.

In the case of C10U G17C, the self-cleavage was 0.58.

As to C10G G51A, the self-cleavage stood at 0.755. Take C10G G51U: the self-cleavage worked out at 0.699.

Turning to C10A C37U, the self-cleavage turned out to be 0.437. With C10A C37G, the self-cleavage was determined as 0.266. Next, A11G U52A: 0.857; A11C A22G: 0.966. Take A11C C38U: the self-cleavage is 0.515.

For the variant A11U A35U, the self-cleavage came to 0.717.

Take C10G G34U: the self-cleavage came out at 1.06. Then C10U A26U, with 0.624. Then C10G G21A, with 0.704; and C10G G21U, with 0.872. Regarding C10G G21C, the self-cleavage is 0.93. Regarding A11C C18A, the self-cleavage was found to be 0.768. Next, C10A A35U: 0.56. Take C10A A35G: the self-cleavage was 0.63. Take A11G G69A: the self-cleavage worked out at 0.405. Consider A11C A28U, for which the self-cleavage worked out at 0.603. For the variant A11C G25U, the self-cleavage is 0.548.

Consider A11C U70C, for which the self-cleavage amounted to 1.23.

For C10U G42C, the self-cleavage is 0.266.

Turning to C10U G42U, the self-cleavage was found to be 0.269.
